Assay: yeast display, Sf9 membrane polyspecificity reagent, FACS + sequencing; frameworks hold sequencing errors
Method in brief: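 In a synthetic yeast display library (Saccharomyces cerevisiae BJ5465), nanobody expression was induced with galactose for 36–48 hours. FACS gates were set low and high (top ~1%) using anti-HA fluorescence for expression and streptavidin fluorescence for binding of the Sf9 membrane reagent. Each polyreactivity label is drawn from the gate of origin.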

Sequence	polyreactivity (PSR sort gate)
QVQLVESGGGLVQAGGSLRVICAASGIIFPIYAMGWYRQAPGKEWELVAGISTGGGGTYYADSVKGRFTISRDNAKNTVYLQKNSLKPEDTAVYYCNVDAAGSNSHARHDSWGQGTQVTVSS	low polyreactivity
QVQLVESGGGLVQAGGSLRVICAASGLIFYGYMGWSRQAPGKERELVAAISYTGGSTYYADSVKGRFTISRDNAKNTVYVQMNSLKPEDTAVYYCARDWRTKWFGYWGQGTQVTVSS	low polyreactivity
QVQLVESGGGLVQAGGSLRVICAPSGSTFGVYAMGWYRQAPGKERDLVAAISDTGGSTYYADSVKGRFTISRDNAKTTVYLQMNSLKPEDTAVYYCAVEVGYTDSPYSYDYWGHGTQVTVSS	low polyreactivity
QVQLVESGGGLVQAGGSLRVSCAASGFIFLAYAMGWYSQAPGKERELFAAIDTSGGSTYYADSVKGRFTSTRDNAKNTVYLQMNSLKPEDSAVYYCAADDYDQYYFDYDYWGQGTQVTVSS	low polyreactivity
QVQLVESGGGLVQAGGSLRVSCAASGFIFRRYAMGWYRQAPGKERELVAAIRTNSGSTYYADSVKGRFTISRDNAKNTVYLQMNSLKPEDTAVYYCATGQVYRTVSWLYNYWGQGTQVTVSS	high polyreactivity
QVQLVESGGGLVQAGGSLRVSCAASGGTFTAYAMGGYIQAPGNERQLVAAISASGDSTYYADSVKGRFTISRDNPKHTVYLQMNSLKPDDTAVYYCAADWAYKYELDYWGQGTQVTVSS	low polyreactivity
QVQLVESGGGLVQAGGSLRVSCAASGLIFNTYAMGWYRQAPGKERELVAAITVGGGTNYADSVKGLFRISRDNAKNTVYLQMNSLNPADTAVYYCAARLASWPLTYDFQWYEYWGQGTQVTVSS	low polyreactivity
QVQLVESGGGLVQAGGSLRVSCAASGLTFKINAMGWYRQEPGKERELVAAITWNGGRTYYADSVKGRFTISRDNAKNTVYLQMNSLKPEDTAVYYCAADGKYYHRRPGWPIYDYWGQGTQVTVSS	high polyreactivity
QVQLVESGGGLVQAGGSLRVSCAASGLTLPPYAMGWDRQAPGKERELVAAITSGGSTNYADSVKGRFTISRDKAKNTVYLQLNSLKPEDTAVYYCAAVGRHYYVKFDFWGQGTHVTVSS	low polyreactivity
QVQLVESGGGLVQAGGSLRVSCAASGNTFGGYAMGWYRQAPGKERELVAAISSSGGSTYYADSVKGRFTISRDNAKNTVYLQMNSLKPEDTAVYYCAAYGGVYGYWTMGYWGQGTQVTVSS	high polyreactivity
QVQLVESGGGLVQAGGSLRVSCAASGNTFGYFAMGWYRQAPGKERELVAAMSGSGGRTYYAASVKGRFTISRDNAKNTVDLQMNILKPEATAVYYCNAVYYHVVDFDYWGQGTQVTVSS	high polyreactivity
QVQLVESGGGLVQAGGSLRVSCAASGRTFGGYAMGWYRQAPGKERELVAAISDRGTSTYYADSVKGRFTISRDNAKNTVYLQMNSLKPEDTAVYYCAARINYWGYYYWGQGTQVTVSS	high polyreactivity
QVQLVESGGGLVQAGGSLRVSCAASGRTIRWNAMGWSRQAPGKEREMVAAITSRGGSTYYADSVKGRFTISRDNAKNTVYLQMNSLKPEDTAVYYCAKQPKPPPVTGYDYWGQGTQVTVSS	high polyreactivity
QVQLVESGGGLVQAGGSLRVSCAASGSIFRFHVMGWYRQAPGKERELVAAITRGDSTNYADSVKGRFTIPRDNAKNTVYLHMNSLKPEATAVYYCATKTPGWGIFDYWGPGTQVTVSS	low polyreactivity
QVQLVESGGGLVQAGGSLRVSCAASGSTCSQYVMGWYRQAPGKERELVAAISGGYRTYYADSVKGRFTISRDNAKNTVYLQMNSLKPEDTAVYYCAAEVLKTRWSYDYWGQGTQVTVSS	high polyreactivity
QVQLVESGGGLVQAGGSLRVSCAASGSTFPSNAMGWYRQAPGKERELVATITSAGGGTYYADSVKGRFTISRDNAKNSVYLQMNSLKAEDTAVYYCNADGPAGDAFDYWGPGTQVTVSS	low polyreactivity
QVQLVESGGGLVQAGGSLRVSCAASGSTFRVNGMGGYRQAPGKERELLATIRGRGGTTYYADSVKGRFTISRDNAKTTVYLQMNSLKPDDTAVSYCAATNVKRTEGYTPDYDYWGHGTQVTVSS	high polyreactivity
QVQLVESGGGLVQAGGSLRVSCAASGSTFWSNVMGWYRQAPGKERELDSAISYGGVTTSYADSVKGRFTISRDNAKNTVYLQMNSLKPEDTAVYYCATDYVGYYFYESDYWGQGTQVTVSS	low polyreactivity
QVQLVESGGGLVQAGGSLSFSCAASGSIFDYNAMGWYRQAPGKERELVADIRGIGGSTYYADSVKGRFTISRDNAKNTFYLQMNSLIPEDTAVYYCNTSTLGGYYWGQGTQVTVSS	low polyreactivity
QVQLVESGGGLVQAGGSLSLICAASGRNFYTYAMGWYRQAPGKERELVAAISWSGGSTYYADSVKGRFTISRDNAKNTVYLQMNSLNPEDTAVYYCNARFRFGWPGYDYWGQGTQVTVSS	high polyreactivity
QVQLVESGGGLVQAGGSLSLICADTGLTFRVYAMGWYRQAPGKERELVAAISSRGGSTYYADSVKGRFTISRDNAKYTVLLQMNSLKPEDTAVYDCYARGQGGYWGQGTQVTVSS	high polyreactivity
QVQLVESGGGLVQAGGSLSLSCAASGFIFGWYAMGWFRQAPGKERELVAAIYASGTRTYYADSVKGRFTISRDNAKNTVYLQMNSLKPEDTAVYYCNVYTKFVYAYDYWGQGTQVTVSS	high polyreactivity

Sequence	polyreactivity (PSR sort gate)
QVQLVESGGGLVQAGGSLSLSCAASGFNSSHYAMGWYRQAPGKERELVATISSGGSTYADSVKGRFTISRDNAKNTVYLQMNSLKPEDTAVYYCDKGVRYKQYHIMYYWGQGTQVTVSS	high polyreactivity
QVQLVESGGGLVQAGGSLSLSCAASGFTFGRNAMGWYRQAPGKERELVASIDWSGGSTYYADSVKGRFTISRDNAKNTVYLQMNSLKPEDTAVYYCAVGPNSVGNRSYGFDYWGQGTQVTVSS	low polyreactivity
QVQLVESGGGLVQAGGSLSLSCAASGFTFYSYTMGWYRQAPGKDREMVAAISGRSVRTYYADSVKGRFTISRDNAKNTVYLQMNSLKPEDTAVYYCARAYYWRTSWYNYWGQGTQVTVSS	high polyreactivity
QVQLVESGGGLVQAGGSLSLSCAASGIIFYNYAMGWYRQAPGKERELVAAISSSGGRTYYAESVKGRFTISRDNAKNTVYLQMNSLKPEDTAVYYCAAYVWAYYVPYNYGYWGQGTQVTVSS	high polyreactivity
QVQLVESGGGLVQAGGSLSLSCAASGITLYWYAMRWYIQAPGKERELVATINWSGGSTYYADSVKGRFTISRDNAKNTVYLQMNSLKPEDTAVYYCNVDYSDEGMGYWGQGTQVTVSS	low polyreactivity
QVQLVESGGGLVQAGGSLSLSCAASGLIFLQYGMGWYREAPGKERELVAAITTRGGRTYYADSVKRRFTISRDNAKNTVYLQMNSLKPEDTAVYYCAADSEQDNLRYYRWVWYYYWGQGTQVTVSS	low polyreactivity
QVQLVESGGGLVQAGGSLSLSCAASGLIFYIYAMGWYRQAPGKEMELVAAITESGGSTYYADSVKGRFTISRDNAKNTVYLQMNSLKPEDTAVYYCAKDFHNYPSFGEDYWGQGTQVTVSS	low polyreactivity
QVQLVESGGGLVQAGGSLSLSCAASGLTFANYVMGWYRQEPGKERELVAAISRSGGSTYYADSVKGRFTISRDNAKNTVYLQMNSLKPEDPAVYYCAAAAWDPKGSRYDYWGQGPQVTVSS	low polyreactivity
QVQLVESGGGLVQAGGSLSLSCAASGLTFTGNAMGWYRQAPGKERELVAAISWSGGSTYYADSVKGRYTISRDNAKNTVYLQMNSLKPEDTAVYYCGDPDSRYDYWGQGTQVTVSS	high polyreactivity
QVQLVESGGGLVQAGGSLSLSCAASGLTFVYYVMGWYRQAPGKERELVAAISSGGGTYYADSVKGRFTISRDNAKNTVYLQMNSLKPEDTAVYYCAADLLGWFDFDYWGQGTQVTVSS	high polyreactivity
QVQLVESGGGLVQAGGSLSLSCAASGRIFADNAMGWYRQSPGKESELVADITYSGGSTYYAESVKGRFTISRDNAKNTLYLQMNSLNPEDTAFYYCAKQCVDYWGQGTQVTVSS	low polyreactivity
QVQLVESGGGLVQAGGSLSLSCAASGRIFNQNAMGWYRQAPGKERELVAAISKSGTRTYYADSVKGRFTISRDNAKNTVYLQMNSLNREDTAVYYCAADYYRRIGGYRYDYDYWGQGTEVTVSS	high polyreactivity
QVQLVESGGGLVQAGGSLSLSCAASGRIFPPYAMGWYRPAPGKERELVAAISVSGSNTYYADSVKGRFTISRYNAKNTVYLQMNSLKPEDTAVYYCNAKRYSPVYYWYDYCGQGTQVTVSS	high polyreactivity
QVQLVESGGGLVQAGGSLSLSCAASGRIFYYNAMGWYRQAPGKERELVAAITRGGSTYYADSVKGRFTISRDNAKNTVYLQMNSLKPEDTAVYYCAADRTGYSRYTTSVKGQRYYYWGQGTQVTVSS	high polyreactivity
QVQLVESGGGLVQAGGSLSLSCAASGRIRRYTMGWYRQAPGKERELVASISGNGGSTYYADSVTGRFTISRDNAKNTVYLQMNSLKPEDTAVYDCARTKQEYTFGQFYLGDYWGQGTQVTVSS	low polyreactivity
QVQLVESGGGLVQAGGSLSLSCAASGRNFVINALGWYRQAPGTERELVARIRSGGSTNYADSVKGRFTISRDNAKNTVYLQMNSLKPEDTAVYYCAAYLRTERYGYWGQGTQVTVSS	high polyreactivity
QVQLVESGGGLVQAGGSLSLSCAASGRTFDTYAMGWYRQAPGKERELVASITQSGGTTYYADSVKGRFTISRDNAKNTVYLQMNSLKPEDTAVYYCAARSYGSTSPIRVQLYYWGQGTQVTVSS	high polyreactivity
QVQLVESGGGLVQAGGSLSLSCAASGRTFFKYAMGWYRQAPGKERELVASITGRGGSTYADSVKGRFTISRDNAKNTVYLQMNSLKPEDTAVYYCAKVYQRGAQYYYYKYDYWGQGTQVTVSS	high polyreactivity
QVQLVESGGGLVQAGGSLSLSCAASGRTFGSYAMGWYRQAPGKERELVAAITGSGGSTYYADSVKGRFTISRDNAKNNVYLQMNSLKPEDTAVYYCRYLFGYIAMDYWGQGTQVTVSS	low polyreactivity
QVQLVESGGGLVQAGGSLSLSCAASGRTFKRYAMGWYRQAPGKERELVAAITSSGTSTYADSVKGRFTISRDNAKNTVYFQMNSLKPEDTAVYYCNRGYFNSRTPTFDYWGQGTQVTVSS	low polyreactivity
QVQLVESGGGLVQAGGSLSLSCAASGRTFLYNAMGWYRQAPGKERELVAGITQSGSSTYYADSVKGRFTISRDNAKNTVYLQMNSMKPEDTAVYYCAKVLYRRGYKFDYWGQGTQVTVSS	low polyreactivity
